Data on 1 substance can be found in patent US20080193980A1.

This assay addresses Human IgG. In words: plate coated with human IgG, luminescence (Imax) after CaCl2.

“Protein A-AQ fusion protein (from UniProt P02976 37-307; P07164 9-196)”: the concentration at which the luminescence intensity reached a plateau was determined as 10 ng/mL.
